{"source": "paper PMC6238593", "about": "“Beetle luciferases with naturally red- and blue-shifted emission” (Life Science Alliance, 2018)", "key": {"[1]": {"molecular_target": "T1, REPh (red-emitting luciferase from P. hirtus) (Phrixothrix hirtus, UniProt Q9U4U7)", "T1 construct": "full-length synthetic codon-optimised gene in pET28-MHL, E. coli BL21-CodonPlus-RIL, Ni and size-exclusion purified; about 61 kDa monomer, tetramer in solution; PDB codes 6AAA, 6ABH, 6AC3 printed without assignment to protein", "T1 sequence (Q9U4U7 1-546)": "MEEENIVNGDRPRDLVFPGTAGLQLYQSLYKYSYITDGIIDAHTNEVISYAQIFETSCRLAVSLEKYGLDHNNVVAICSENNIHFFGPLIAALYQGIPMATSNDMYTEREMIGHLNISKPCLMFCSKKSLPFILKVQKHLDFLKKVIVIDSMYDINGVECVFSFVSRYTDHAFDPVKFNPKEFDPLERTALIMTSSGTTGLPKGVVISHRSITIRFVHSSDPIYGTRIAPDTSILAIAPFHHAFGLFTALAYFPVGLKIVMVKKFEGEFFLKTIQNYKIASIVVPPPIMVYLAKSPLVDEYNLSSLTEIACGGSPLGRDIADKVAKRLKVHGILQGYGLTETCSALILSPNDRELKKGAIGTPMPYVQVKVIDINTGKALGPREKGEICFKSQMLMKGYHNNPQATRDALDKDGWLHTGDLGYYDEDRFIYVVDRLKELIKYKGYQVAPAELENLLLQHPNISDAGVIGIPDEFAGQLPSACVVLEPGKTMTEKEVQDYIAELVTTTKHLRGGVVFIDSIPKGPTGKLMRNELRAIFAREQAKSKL", "test": "differential scanning calorimetry", "assay_type": "binding", "conditions": "35 °C without ligand, Hepes 20 mM pH 7.8, MgCl2 10 mM, ligand 5 uM (methods) or 5 mM (Figure S10 legend)"}, "[2]": {"molecular_target": "T2, GBAv (blue-shifted green-emitting luciferase from A. vivianii) (Amydetes, UniProt A0A3F2YLV6)", "T2 construct": "full-length synthetic codon-optimised gene in pET28a+, E. coli BL21-CodonPlus-RIL, Ni and size-exclusion purified; monomer; PDB codes 6AAA, 6ABH, 6AC3 printed without assignment to protein", "T2 sequence (A0A3F2YLV6 1-547)": "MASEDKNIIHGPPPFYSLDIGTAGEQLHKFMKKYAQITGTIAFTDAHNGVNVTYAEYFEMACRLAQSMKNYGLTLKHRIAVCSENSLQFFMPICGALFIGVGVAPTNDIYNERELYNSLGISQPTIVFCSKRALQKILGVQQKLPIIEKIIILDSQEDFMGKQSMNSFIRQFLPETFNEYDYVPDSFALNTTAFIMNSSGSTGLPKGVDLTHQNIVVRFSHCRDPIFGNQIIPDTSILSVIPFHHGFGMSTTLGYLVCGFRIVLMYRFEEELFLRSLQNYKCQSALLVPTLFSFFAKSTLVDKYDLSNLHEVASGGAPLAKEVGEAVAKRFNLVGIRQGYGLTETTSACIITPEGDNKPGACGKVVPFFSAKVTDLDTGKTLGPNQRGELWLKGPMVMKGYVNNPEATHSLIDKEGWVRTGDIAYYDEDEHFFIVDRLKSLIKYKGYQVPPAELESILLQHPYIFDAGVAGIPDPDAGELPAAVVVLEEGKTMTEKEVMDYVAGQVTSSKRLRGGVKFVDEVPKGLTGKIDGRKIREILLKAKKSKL", "test": "bioluminescence emission spectra", "assay_type": "biochemical", "conditions": "pH 7.0 to 8.0"}, "[3]": {"molecular_target": "T3, REPh (red-emitting luciferase from P. hirtus) (Phrixothrix hirtus, UniProt Q9U4U7, K522A)", "T3 construct": "full-length synthetic codon-optimised gene in pET28-MHL, E. coli BL21-CodonPlus-RIL, Ni and size-exclusion purified; about 61 kDa monomer, tetramer in solution; PDB codes 6AAA, 6ABH, 6AC3 printed without assignment to protein", "T3 sequence (Q9U4U7 1-546 K522A)": "T1 sequence (Q9U4U7 1-546) with K522A", "test": "differential scanning calorimetry", "assay_type": "binding", "conditions": "Hepes 20 mM pH 7.8, MgCl2 10 mM; ligand 5 uM (methods) or 5 mM (Figure S10 legend)"}, "[4]": {"molecular_target": "red-emitting luciferase from Phrixothrix hirtus, double mutant Y153A/F162A (Phrixothrix hirtus)", "test": "SEC; Superdex 200 5/150 GL; MWs estimated with a gel filtration calibration kit"}, "[5]": {"molecular_target": "red-emitting luciferase from Phrixothrix hirtus, mutant F162A (Phrixothrix hirtus)", "test": "SEC; Superdex 200 5/150 GL; MWs estimated with a gel filtration calibration kit"}, "[6]": {"molecular_target": "red-emitting luciferase from Phrixothrix hirtus, mutant Y153A (Phrixothrix hirtus)", "test": "SEC; Superdex 200 5/150 GL; MWs estimated with a gel filtration calibration kit"}, "[7]": {"molecular_target": "red-emitting luciferase from the glow-worm Phrixothrix hirtus, wild type (Phrixothrix hirtus)", "test": "SEC; Superdex 200 5/150 GL; MWs estimated with a gel filtration calibration kit"}, "[8]": {"molecular_target": "red-emitting luciferase from the glow-worm Phrixothrix hirtus, wild type (Phrixothrix hirtus)", "test": "crystal structure; REPh free enzyme, P3(1)21 crystal form, 3.60 Å; PEG 3350 19-21%, bis-tris propane 100 mM pH 6.0, ammonium sulfate 200 mM"}, "[9]": {"molecular_target": "red-emitting luciferase from the glow-worm Phrixothrix hirtus, wild type (Phrixothrix hirtus)", "test": "crystal structure; REPh free enzyme, P1 crystal form, 3.05 Å; only the N-terminal domains seen; PEG 3350 19-21%, bis-tris propane 100 mM pH 6.0, ammonium sulfate 200 mM"}}, "note": "Changes are numbered by the printed parent chain."}
{"compound": "Nc1ncnc2c1ncn2[C@@H]1O[C@H](COP(=O)(O)OP(=O)(O)OP(=O)(O)O)[C@@H](O)[C@H]1O", "note": "[ATP]", "values": [{"measurement": "Tm", "setting": "[1]; two transitions with ligand, in °C (unit assumed)", "value": "36 and 41"}, {"measurement": "bioluminescence emission spectra", "setting": "[2]; co-substrate luciferin", "value": "The emission of WT GBAv was pH-dependent"}, {"measurement": "Tm", "setting": "[3]", "value": "signal was detectable only after the addition of substrate, luciferin or ATP"}]}
{"compound": "O=C(O)[C@H]1CSC(c2nc3ccc(O)cc3s2)=N1", "note": "[firefly luciferin]", "values": [{"measurement": "Tm", "setting": "[1]; Tm with ligand", "value": 41, "unit": "°C"}, {"measurement": "bioluminescence emission spectra", "setting": "[2]; co-substrate ATP", "value": "The emission of WT GBAv was pH-dependent"}]}
{"compound": "red-emitting luciferase from Phrixothrix hirtus, double mutant Y153A/F162A (enzyme)", "values": [{"measurement": "stoichiometry N", "setting": "[4]", "value": 2}]}
{"compound": "red-emitting luciferase from Phrixothrix hirtus, mutant F162A (enzyme)", "values": [{"measurement": "stoichiometry N", "setting": "[5]", "value": 2}]}
{"compound": "red-emitting luciferase from Phrixothrix hirtus, mutant Y153A (enzyme)", "values": [{"measurement": "stoichiometry N", "setting": "[6]", "value": 2}]}
{"compound": "red-emitting luciferase from the glow-worm Phrixothrix hirtus, wild type (enzyme)", "values": [{"measurement": "stoichiometry N", "setting": "[7]", "value": 4}, {"measurement": "stoichiometry N", "setting": "[8]", "value": 4}, {"measurement": "stoichiometry N", "setting": "[9]", "value": 8}]}
